In assay [1] the target is T1, human CD40-Fc protein (amino acid residue 21-193 of SEQ ID NO: 67 linked to N-terminus of amino acid residue … (human, biotin-labeled in the capture ELISA and in the benchmark blocking ELISA; unlabeled when coated in the ligand blocking ELISA).
T1 construct: also called biotin-labeled human CD40-Fc; human CD40-Fc-biotin
In words: capture ELISA; antibody captured, biotin-labeled human CD40-Fc in solution. The method, then:
(§1) Plates were washed 4 times with wash buffer (PBS+0.05% Tween-20, PBST) and then blocked with 200 μl/well blocking buffer (5% w/v non-fatty milk in PBST) for 2 hours at 37° C. […] After a final wash, plates were incubated with 100 μl/well ELISA substrate TMB (Innoreagents, Cat # TMB-S-002). The reaction was stopped in 15 minutes at 25° C. with 50 μl/well 1M H₂SO₄, and the absorbance was read at 450 nm and plotted against antibody concentration. Data were analyzed using Graphpad Prism software and EC₅₀ values were reported.
(ELISA stands for enzyme-linked immunosorbent assay.)

In assay [2] the target is T1, human CD40-Fc protein (amino acid …). Kind of assay: capture ELISA (antibody captured on coated anti-IgG F(ab')2, biotin-labeled human CD40-Fc in solution, streptavidin-HRP, OD(450-630)). The method, then:
as §1

For assay [3] the target is unchanged. The description is as above. As for the experimental part:
as §1
The source holds these as a separate data set.

Assay [4] shares this target. In words: competitive ELISA; coated human CD40-Fc, competitor biotin human CD40L-his. As for the experimental part:
Briefly, human CD40-Fc proteins (amino acid residue 21-193 of SEQ ID NO: 67 linked to N-terminus of amino acid residue 99-330 of SEQ ID NO.: 24) were coated on 96-well micro plates at 2 μg/mL in coating buffer (PBS) and incubated overnight at 4° C. The next day, plates were washed with wash buffer (PBS+0.05% Tween-20, PBST), and blocked with 5% w/v non-fatty milk in PBST for 2 hours at 37° C. Plates were then washed again using wash buffer.
Serially diluted the mouse anti-CD40 antibodies of the present invention or the controls (starting at 200 nM with a four-fold serial dilution) in 2.5% w/v non-fatty milk in PBST were prepared to the plates and incubated with the human CD40-Fc proteins at room temperature for 40 minutes. […] Plates were washed again. 100 μl/well of streptavidin conjugated HRP was added and incubated for 40 minutes at 37° C. Plates were washed again using wash buffer. Finally, TMB was added and the reaction was stopped using 1M H₂SO₄, and the absorbance was read at 450 nm. Data were analyzed using Graphpad Prism software and IC₅₀ values were reported.

Assay [5] has the same target. In words: capture ELISA (antibody captured on coated goat anti-human IgG F(ab')2, biotin-labeled human CD40-Fc in solution, streptavidin-HRP, OD(450-630)).
Assay [6] deals with T2, Human CD40-his protein (Acro biosystems, Cat # CD0-H5228) (human, UniProt P25942 21-193).
T2 construct: Bought reagent; not shown: his tag
In words: SPR, Biacore; antibody captured, human CD40-his flowed. The source says:
Briefly, goat anti-mouse IgG (GE healthcare, Cat # BR100838, Mouse Antibody Capture Kit) was covalently linked to a CM5 or a Protein G chip (carboxy methyl dextran coated chip) via primary amines, using a standard amine coupling kit provided by Biacore (GE healthcare, Pittsburgh, Pa., USA). Un-reacted moieties on the biosensor surface were blocked with ethanolamine. […] Then, human CD40-his (Acro biosystems, Cat # CD0-H5228) or cynomolgus monkey CD40-his protein (Acro biosystems, Cat # CD0-052H6) in HBS EP buffer (provided by Biacore) was flowed onto the chip at a flow rate of 30 μL/min. The antigen-antibody association kinetics was followed for 2 minutes and the dissociation kinetics was followed for 10 minutes. The association and dissociation curves were fit to a 1:1 Langmuir binding model using BIA evaluation software.
For orientation: SPR reads the build-up and loss of mass on a sensor chip optically.

In assay [7] the target is T1, human CD40-Fc protein (amino acid …). Kind of assay: capture ELISA; antibody captured, biotin-labeled human CD40-Fc in solution. The method, then: as §1
This is another data set of the same source.

The record followed here is patent US20200332017A1 (SALUBRIS CHENGDU BIOTECH, published 2020).

As a reminder, the EC50 is the concentration that produces a half-maximal response. As usually defined, the EC50 (read off the curve) is the concentration at which the effect is half-maximal. Lower therefore signals a more potent agent. Usually IC50 stands for the concentration at which inhibition is half-maximal. Lower therefore signals greater potency. By Kd is commonly meant the equilibrium constant for the complex coming apart. Low readings indicate tighter binding, high ones weaker binding. In general, koff refers to the rate constant with which the complex falls apart. A low value points to a long-lived complex. A word on the kon: it is the rate constant with which the complex forms. A low value points to slower complex formation.

Read-outs that look alike come from different tables or passages of the source.

B1: mouse anti-CD40 monoclonal antibody C1C1 (antibody, V domains shown)
VH: EVKLVESGGGLVKPGASLKLSCAASGFTFSNYGMSWVRQNSDKRLEWVASISSGGDDTYYPDNVKGRCTISRENAKNTLYLEMSSLKTEDTALYYCTRAGGKAMDYWGQGTSVTVST
VL: DIVLTQSPATLSVIPGNSVSLSCRASQSIRDNLHWYQQKSHESPRLLINYASQSISGIPSRFSGSGSGTDFTLTINSVETEDFGIYFCQQFNSWPLTFGGGTKLELK
notes: those are used here for the chimeric antibody only; also called Mouse C1C1; mouse C1C1
In the case of B1, the EC50 in assay [1] turned out to be 0.19 nM. The “EC50 (read off the curve)” value in assay [2] is ~20 ng/mL; in assay [3] it was ~0.2 nM. In assay [4], the IC50 was found to be 5.19 nM.

B2: chimeric antibody C1C1 (antibody, human IgG1, kappa, V domains shown)
VH: EVKLVESGGGLVKPGASLKLSCAASGFTFSNYGMSWVRQNSDKRLEWVASISSGGDDTYYPDNVKGRCTISRENAKNTLYLEMSSLKTEDTALYYCTRAGGKAMDYWGQGTSVTVST
VL: DIVLTQSPATLSVIPGNSVSLSCRASQSIRDNLHWYQQKSHESPRLLINYASQSISGIPSRFSGSGSGTDFTLTINSVETEDFGIYFCQQFNSWPLTFGGGTKLELKR
notes: also called chC1C1; chimeric C1C1
For B2, the “EC50 (read off the curve)” value in assay [5] was ~30 ng/mL. Besides, in assay [6], binding was put at a Kd of 7.09 nM, the koff was determined as 0.00575 s⁻¹ and the kon was 810000 M⁻¹ s⁻¹. In assay [7], this molecule displayed an EC50 of 0.236 nM.
